The text below walks through data of US20250369024A1, “Acyloin Condensation Reactions, Enzymes, and Products Thereof” (Mojia Biotech Pte. Ltd., priority 2023, published 2025).

Format in all cases: cell-based, E. coli
The subject of one data set is Acetaldehyde. Kind of data set: HACS screening, acetaldehyde-C1 condensation (resting cells), lactic acid. To be noted: 20 mM acetaldehyde and 20 mM formate, 3 hours. The text has this: (§1) To implement the C1 elongation pathway for lactic acid production in vivo, we engineered vectors to independently control expression of various HACS candidates and the acyl-CoA transferase from Clostridium aminobutyricum (CaAbfT), with HACS under control of the IPTG-inducible T7 promoter in pCDFDuet-1 and CaAbfT under control of a cumate-inducible T5 promoter in pETDuet-1. As a host for these vectors, we used an engineered strain of E. coli based on MG1655(DE3) with knockouts for formaldehyde (ΔfrmA) and formate (ΔfdhF ΔfdnG ΔfdoG) oxidation as well as for glycolate utilization (ΔglcD).
In vivo product synthesis was conducted using M9 minimal media (6.78 g/L Na2HPO4, 3 g/L KH2PO4, 1 g/L NH4Cl, 0.5 g/L NaCl, 2 mM MgSO4, 100 μM CaCl2), and 15 μM thiamine-HCl) unless otherwise stated. Cells were initially grown in 96-deep well plates (USA Scientific, Ocala, FL) containing 0.5 mL of the above media further supplemented with 20 g/L glycerol, 10 g/L tryptone, and 5 g/L yeast extract. […]
Cells from the above pre-cultures were then centrifuged (4000 rpm, 22° C.), washed with the above minimal media without any carbon source, and resuspended with 1 mL of above minimal media containing indicated amounts of carbon source. […] After incubation at 30° C. for 3 hours, the cells were pelleted by centrifugation and the media was analyzed using HPLC.

In the next data set the test system is Formaldehyde. The experiment in a line: HACS screening, formaldehyde-formyl-CoA condensation in vivo (resting cells), glycolate. The conditions noted are these: 2.5 mM formaldehyde and 20 mM formate, 0.5 hours.
From the text: as §1, with “glycolate” for “lactic acid”, “pETDuet-1” for “pCDFDuet-1”, “pCDFDuet-1 (FIG. 14C).” for “pETDuet-1.”, “(ΔglcD), which we expected could compete or interfere with the analysis of our pathway (FIG. 14B).” for “(ΔglcD).”
In vivo product synthesis was conducted using M9 minimal media (6.78 g/L Na2HPO4, 3 g/L KH2PO4, 1 g/L NH4Cl, 0.5 g/L NaCl, 2 mM MgSO4, 100 μM CaCl2), and 15 μM thiamine-HCl) unless otherwise stated. […]
Cells from the above pre-cultures were then centrifuged (4000 rpm, 22° C.), washed with the above minimal media without any carbon source, and resuspended with 1 mL of above minimal media containing indicated amounts of carbon source. […] After incubation at 30° C. for 0.5 hours, the cells were pelleted by centrifugation and the media analyzed (FIG. 14A).

A further data set relates to glyoxylic acid. The experiment in a line: HACS screening, glyoxylic acid-C1 condensation (resting cells), tartronic acid. To be noted: 5 mM glyoxylic acid and 20 mM formate; 1 hour. The text has this: To implement the C1 elongation pathway for tartronic acid production in vivo, we engineered vectors to independently control expression of various HACS candidates and the acyl-CoA transferase from Clostridium aminobutyricum (CaAbfT), with HACS under control of the IPTG-inducible T7 promoter in pCDFDuet-1 and CaAbfT under control of a cumate-inducible T5 promoter in pETDuet-1. As a host for these vectors, we used an engineered strain of E. coli based on MG1655(DE3) with knockouts for formaldehyde (ΔfrmA) and formate (ΔfdhF ΔfdnG ΔfdoG) oxidation as well as for glycolate utilization (ΔglcD).
In vivo product synthesis was conducted using M9 minimal media (6.78 g/L Na2HPO4, 3 g/L KH2PO4, 1 g/L NH4Cl, 0.5 g/L NaCl, 2 mM MgSO4, 100 μM CaCl2), and 15 μM thiamine-HCl) unless otherwise stated. Cells were initially grown in 96-deep well plates (USA Scientific, Ocala, FL) containing 0.2 mL of the above media further supplemented with 20 g/L glycerol, 10 g/L tryptone, and 5 g/L yeast extract. […]
Cells from the above pre-cultures were then centrifuged (4000 rpm, 22° C.), washed with the above minimal media without any carbon source, and resuspended with 1 mL of above minimal media containing indicated amounts of carbon source. […] After incubation at 30° C. for 1 hour, the cells were pelleted by centrifugation and the media was analyzed using HPLC.

B1: RuHACL: Engineered 2-hydroxyphytanoyl-CoA lyase [Rhodospirillales bacterium URHD0017], SEQ ID NO: 1 (protein)
chain: MSEVDGATLIARSLKQQGIDHLFGVVGFPITAIAAAAQKEGVAYLGMRNEQSAAYAAAAYGYLTGRPGAAVVVTGPGVVHGLSGLANAQQNCWPMILIGGASETYRGGMGAFQEERQVLIASPFCKFAHGIESVARIPFYVEMATRNAIYGRPGATYLDMPDDIIRGTCETDKIAQAERVPEAPRSVAPAENVEAALDLLEKAQRPLVLLGKGMAWSRGEDEVRAFIERTQVPFVRSPMGKGVMPDDHPLSASAARTLALQQADVIFLMGARLNWIFHFGLPPRYAKDVKVIQLDIAPEEIGHNKPTEVALVGDGKAIMAQLNKALVNRQWFHPKDTPWRQALTKKAAENVATIKPQVDDDQGPAGYYRALRDVAAWMPKNAILSAEGANTMDIGLTQLASSNARSVLNAGTYGTMGVGLGQAIAAAVSDPSRPVIHLSGDSAIGFSGMEMETLVRYNLPVKIVVLNNGGIGPGMPEIPENPMFNLKPNALIYGARYDKVMEAFGGKGIFVKEPKDIRKALDEAMAFKGPALVNVVLSQGSTRKAQQFAWHS
modifications: Rhodospirillales bacterium URHD0017 engineered 2-hydroxyphytanoyl-CoA lyase
For the molecule B1, the “Product flux, substrate Acetaldehyde, product Lactate” value in the data set on Acetaldehyde was determined as 78.1 μM/OD/h. For the same molecule, the “Product flux, substrate Formaldehyde, product Glycolate” value in the data set on Formaldehyde is listed as 44.5 μM/OD/h. The “tartronic acid productivity of best candidate” value in the data set with glyoxylic acid is on record as “up to 13 μM/hr per OD600”.
